Kd data for two molecules are collected here from US20230220115A1 (BIOMOLECULAR, published 2023).

Assay [1] concerns the target recombinant human Fc gamma receptor CD16a 158V (FcRγIIIa) (human, UniProt P08637 17-208).
The target in the next assay is T1, CD19 (UniProt P15391 20-291).
T1 sequence (looked up): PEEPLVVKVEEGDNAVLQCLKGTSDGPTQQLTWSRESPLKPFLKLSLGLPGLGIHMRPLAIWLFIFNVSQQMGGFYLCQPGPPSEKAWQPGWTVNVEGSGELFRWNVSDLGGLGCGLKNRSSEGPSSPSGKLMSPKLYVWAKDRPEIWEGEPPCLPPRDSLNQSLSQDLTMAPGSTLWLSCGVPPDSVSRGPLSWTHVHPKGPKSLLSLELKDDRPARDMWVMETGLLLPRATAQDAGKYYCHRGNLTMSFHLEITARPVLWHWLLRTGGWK

recombinant human Fc gamma receptor CD16a 158V (FcRγIIIa), sequence (P08637 17-208 F176V limits assumed): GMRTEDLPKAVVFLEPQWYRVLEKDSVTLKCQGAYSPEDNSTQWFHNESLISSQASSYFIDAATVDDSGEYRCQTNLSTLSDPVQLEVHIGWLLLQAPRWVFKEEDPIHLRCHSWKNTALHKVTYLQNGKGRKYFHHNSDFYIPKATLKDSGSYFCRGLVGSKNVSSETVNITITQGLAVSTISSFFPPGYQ

B1: B19c66 (one-arm antibody) (antibody, human IgG1, kappa)
light: not shown
heavy: not shown
chain: CPPCPAPELLGGPSVFLFPPKPKDTLMISRTPEVTCVVVDVSHEDPEVKFNWYVDGVEVHNAKTKPREEQYNSTYRVVSVLTVLHQDWLNGKEYKCKVSNKALPAPIEKTISKAKGQPREPQVYVYPPSRDELTKNQVSLTCLVKGFYPSDIAVEWESNGQPENNYKTTPPVLDSDGSFALVSKLTVDKSRWQQGNVFSCSVMHEALHNHYTQKSLSLSPGK
In the case of B1, the Kd in assay [1] was determined as 234 nM; with CD19, 21.8 nM.

B2: B19c66AAC9 (one-arm antibody) (antibody, human IgG1, kappa)
light: not shown
heavy: QVQLQQSGAELVRPGSSVKISCKASGYAFSSYWMNWVKQRPGQGLEWIGQIWPGDGDTNYNGKFKGKATLTADESSSTAYMQLSSLASEDSAVYFCARRETTTVGRYYYAMDYWGQGTTVTVSSASTKGPSVFPLAPSSKSTSGGTAALGCLVKDYFPEPVTVSWNSGALTSGVHTFPAVLQSSGLYSLSSVVTVPSSSLGTQTYICNVNHKPSNTKVDKKVEPKSCDKTHTCPPCPAPKRRGGPSVFLFPPKPKDTLMISRTPEVTCVVVDVSHEDPEVKFNWYVDGVEVHNAKTKPREEQYNSTYRVVSVLTVLHQDWLNGKEYKCKVSNKALPAPIEKTISKAKGQPREPQVYVLPPSRDELTKNQVSLLCLVKGFYPSDIAVEWESNGQPENNYLTWPPVLDSDGSFFLYSKLTVDKSRWQQGNVFSCSVMHEALHNHYTQKSLSLSPGK
chain: CPPCPAPEDEGGPSVFLFPPKPKDTLMISRTPEVTCVVVDVSHEDPEVKFNWYVDGVEVHNAKTKPREEQYNSTYRVVSVLTVLHQDWLNGKEYKCKVSNKALPAPIEKTISKAKGQPREPQVYVYPPSRDELTKNQVSLTCLVKGFYPSDIAVEWESNGQPENNYKTTPPVLDSDGSFALVSKLTVDKSRWQQGNVFSCSVMHEALHNHYTQKSLSLSPGK
For the molecule B2, in the assay with CD19, the affinity, expressed as Kd, was 21 nM.
